{
  "source": "paper PMC4227786",
  "key": {"14-3-3θ": {"molecular_target": "14-3-3θ (UniProt P27348)", "assay": "co-immunoprecipitation", "settings": "reference: wild type hnRNPA1; sites S4,S6"}, "14-3-3σ": {"molecular_target": "14-3-3σ (UniProt P31947)", "assay": "co-immunoprecipitation", "settings": "reference: wild type hnRNPA1; sites S4,S6"}},
  "data": [
    {"substance": "hnRNPA1 (from UniProt P09651) S4AS6A", "values": [
      {"measurement": "binding against the reference", "setting": "14-3-3θ", "value": "lost"},
      {"measurement": "binding against the reference", "setting": "14-3-3σ", "value": "lost"}
    ]}
  ]
}
